From patent US20160168247A1 (published 2016)
Numbering of substitutions follows the chain as printed. Values belong to the binder of their own block, whether it stands above or below them.

Columns and labels:
[1] = molecular target: T1, human CD3 (on the human T-cell line Jurkat or on human T-cells) (human, UniProt P09693 23-182; P20963 22-164); test: FACS binding; Fig 1B
HSC-F [2] = molecular target: T2, HSC-F (cynomolgus monkey, UniProt Q95LI8 22-171; Q95LI7 23-181); test: FACS binding; Fig 2A
T2 chain: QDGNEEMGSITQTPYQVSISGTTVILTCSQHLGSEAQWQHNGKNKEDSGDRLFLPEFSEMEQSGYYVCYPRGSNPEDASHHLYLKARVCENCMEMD

[3] = molecular target: T1, human CD3 (on the human T-cell line …); test: FACS binding; Fig 1A
HSC-F [4] = molecular target: T2, HSC-F; test: FACS binding; Fig 2B
[5] = molecular target: T1, human CD3 (on the human T-cell line …); test: FACS binding
HSC-F [6] = molecular target: T2, HSC-F; test: FACS binding
HSC-F [7] = molecular target: T2, HSC-F; test: FACS binding
[8] = molecular target: T1, human CD3 (on the human T-cell line …); test: FACS binding; remark: listed apart in the source
HSC-F [9] = molecular target: T2, HSC-F; test: FACS binding; second row printed H4L1; graph legend indicates H4L3

T1 sequence (chain, as listed by the source, chain 1 of 4): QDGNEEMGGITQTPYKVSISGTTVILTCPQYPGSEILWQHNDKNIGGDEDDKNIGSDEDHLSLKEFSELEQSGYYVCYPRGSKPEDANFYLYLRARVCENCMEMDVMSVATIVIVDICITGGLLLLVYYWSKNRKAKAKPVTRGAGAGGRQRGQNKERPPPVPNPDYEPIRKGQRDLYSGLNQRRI
T1 sequence (chain, as listed by the source, chain 2 of 4): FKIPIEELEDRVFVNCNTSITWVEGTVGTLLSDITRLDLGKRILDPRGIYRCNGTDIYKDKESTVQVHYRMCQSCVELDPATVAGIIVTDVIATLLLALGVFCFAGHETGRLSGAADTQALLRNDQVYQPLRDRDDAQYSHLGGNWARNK
T1 sequence (P09693 23-182, chain 3 of 4): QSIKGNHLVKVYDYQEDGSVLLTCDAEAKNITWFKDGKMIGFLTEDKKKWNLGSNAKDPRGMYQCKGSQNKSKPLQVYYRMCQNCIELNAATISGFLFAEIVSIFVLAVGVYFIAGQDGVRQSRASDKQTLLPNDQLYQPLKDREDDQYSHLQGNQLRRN
T1 sequence (P20963 22-164, chain 4 of 4): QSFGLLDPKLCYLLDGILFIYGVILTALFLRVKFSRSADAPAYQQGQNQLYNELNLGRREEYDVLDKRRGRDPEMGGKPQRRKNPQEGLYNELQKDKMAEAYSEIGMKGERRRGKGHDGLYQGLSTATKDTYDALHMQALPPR

EC50 [1]: 0.68 µg/mL
B1: bsIgG1 CD3×HER2 (bispecific antibody, V domains shown)
VH 1: EVKLLESGGGLVQPKGSLKLSCAASGFTFNTYAMNWVRQAPGKGLEWVARIRSKYNNYATYYADSVKDRFTISRDDSQSILYLQMNNLKTEDTAMYYCVRHGNFGNSYVSWFAYWGQGTLVTVSA
VL 1: QAVVTQESALTTSPGETVTLTCRSSTGAVTTSNYANWVQEKPDHLFTGLIGGTNKRAPGVPARFSGSLIGDKAALTITGAQTEDEAIYFCALWYSNLWVFGGGTKLTVL
VH 2: QVQLVQSGAEVKKPGASVKVSCKASGYTFTNYGISWVRQAPGQGLEWMGWLSAYSGNTIYAQKLQGRVTMTTDTSTTTAYMELRSLRSDDTAVYYCARDRIVVRPDYFDYWGQGTLVTVSS
VL 2: EIVLTQSPATLSLSPGERATLSCRASQSVSSYLAWYQQKPGQAPRLLIYDASNRATGIPARFSGSGSGTDFTLTISSLEPEDFAVYYCQQRSNWPRTFGQGTKVEIK

EC50 (HSC-F [4]): 3.54 µg/mL
B3: bsIgG1 huCD3-H3L1xHER2-LFLEDA (bispecific antibody, V domains shown)
VH 1: B1 VH 1 with L5V, Q13K, K15G, G16R, K19R, Q78K, N87S, A125S
VL 1: not shown
VH 2: B1 VH 2
VL 2: B1 VL 2

EC50 (HSC-F [4]): 4.46 µg/mL
B6: bsIgG1 CD3xHER2-LFLEDA (bispecific antibody, V domains shown)
VH 1: B1 VH 1
VL 1: B1 VL 1
VH 2: B1 VH 2
VL 2: B1 VL 2

EC50 [5]: 0.06 µg/mL
EC50 (HSC-F [6]): 0.03 µg/mL
B9: IgG1-huCD3-H4L1-LFLEDA (antibody, V domains shown)
VH: B1 VH 1 with L5V, Q13K, K15G, G16R, K19R, Q78K, N87S, L120M, A125S
VL: not shown

EC50 [1]: 0.28 µg/mL
EC50 [8]: 0.64 µg/mL
B13: bsIgG1 huCD3-H3L1×HER2-LFLEDA (bispecific antibody, V domains shown)
VH 1: B1 VH 1 with L5V, Q13K, K15G, G16R, K19R, Q78K, N87S, A125S
VL 1: not shown
VH 2: B1 VH 2
VL 2: B1 VL 2

EC50 (HSC-F [9]): 0.24 µg/mL
B15: bsIgG1-huCD3-H4L1xHER2-LFLEDA (bispecific antibody, V domains shown)
VH 1: B1 VH 1 with L5V, Q13K, K15G, G16R, K19R, Q78K, N87S, L120M, A125S
VL 1: QAVVTQEPSFSVSPGGTVTLTCRSSTGAVTTSNYANWVQQTPGQAFRGLIGGTNKRAPGVPARFSGSILGNKAALTITGAQADDESDYYCALWYSNLWVFGGGTKLTVL
VH 2: B1 VH 2
VL 2: B1 VL 2

EC50 [5]: 0.08 µg/mL
EC50 (HSC-F [6]): 0.02 µg/mL
B16: IgG1-huCD3-H4L3-LFLEDA (antibody, V domains shown)
VH: B1 VH 1 with L5V, Q13K, K15G, G16R, K19R, Q78K, N87S, L120M, A125S
VL: B15 VL 1

More lines, now with the values behind:

B2: IgG1-huCD3-H3L3 (antibody, V domains shown)
VH: B1 VH 1 with L5V, Q13K, K15G, G16R, K19R, Q78K, N87S, A125S
VL: B15 VL 1
EC50 (HSC-F [2]): 0.11 µg/mL
EC50 [3]: 0.02 µg/mL

B4: IgG1-huCD3-H3L3-LFLEDA (antibody, V domains shown)
VH: B1 VH 1 with L5V, Q13K, K15G, G16R, K19R, Q78K, N87S, A125S
VL: B15 VL 1
EC50 [5]: 0.08 µg/mL
EC50 (HSC-F [6]): 0.03 µg/mL

B5: IgG1-huCD3-H1L3 (antibody, V domains shown)
VH: B1 VH 1 with L5V, K15G, K19R, Q78K, I80S, A125S
VL: B15 VL 1
EC50 (HSC-F [2]): 0.28 µg/mL
EC50 [3]: 0.06 µg/mL

B7: IgG1-huCD3-H4L1 (antibody, V domains shown)
VH: B1 VH 1 with L5V, Q13K, K15G, G16R, K19R, Q78K, N87S, L120M, A125S
VL: not shown
EC50 (HSC-F [2]): 0.26 µg/mL
EC50 [3]: 0.05 µg/mL

B8: IgG1-huCD3-H1L3-LFLEDA (antibody, V domains shown)
VH: B1 VH 1 with L5V, K15G, K19R, Q78K, I80S, A125S
VL: B15 VL 1
EC50 [5]: 0.11 µg/mL
EC50 (HSC-F [6]): 0.03 µg/mL

B10: IgG1-CD3-LFLEDA (antibody, V domains shown)
VH: B1 VH 1
VL: B1 VL 1
EC50 (HSC-F [4]): 0.47 µg/mL
EC50 (HSC-F [2]): 0.3 µg/mL
EC50 (HSC-F [7]): 0.06 µg/mL
EC50 (HSC-F [6]): 0.06 µg/mL

B11: IgG1-huCD3-H3L1-LFLEDA (antibody, V domains shown)
VH: B1 VH 1 with L5V, Q13K, K15G, G16R, K19R, Q78K, N87S, A125S
VL: not shown
EC50 [1]: 0.04 µg/mL
EC50 (HSC-F [4]): 0.3 µg/mL
EC50 (HSC-F [2]): 0.19 µg/mL
EC50 [5]: 0.1 µg/mL
EC50 (HSC-F [6]): 0.04 µg/mL
EC50 [3]: 0.04 µg/mL

B12: IgG1-huCD3-H1L2 (antibody, V domains shown)
VH: B1 VH 1 with L5V, K15G, K19R, Q78K, I80S, A125S
VL: B15 VL 1 with D87I, Y89F
EC50 (HSC-F [2]): 0.31 µg/mL
EC50 [3]: 0.08 µg/mL

B14: IgG1-CD3-LFLEDA (parental chimeric CD3 antibody with non-activating LFLEDA mutations) (antibody, V domains shown)
VH: B1 VH 1
VL: B1 VL 1
EC50 [1]: 0.07 µg/mL
EC50 [5]: 0.27 µg/mL
EC50 [8]: 0.18 µg/mL
EC50 [3]: 0.08 µg/mL
